According to paper PMC10916864 (Molecular Biology of the Cell, 2024):

Target: T1, His-mNeon-tagged EBP50 PDZ1-PDZ2 fragment (human, UniProt O14745-1 1-298)
T1 sequence (looked up): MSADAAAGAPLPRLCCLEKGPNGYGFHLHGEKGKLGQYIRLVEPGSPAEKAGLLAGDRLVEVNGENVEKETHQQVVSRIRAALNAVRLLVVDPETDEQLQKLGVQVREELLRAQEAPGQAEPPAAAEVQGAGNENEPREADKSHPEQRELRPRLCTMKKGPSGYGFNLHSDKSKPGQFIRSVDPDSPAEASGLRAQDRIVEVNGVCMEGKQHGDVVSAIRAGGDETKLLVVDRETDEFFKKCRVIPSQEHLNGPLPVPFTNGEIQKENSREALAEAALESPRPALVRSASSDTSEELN
Test: pull-down

B1: GST-CDHR5 CD (GST fusion of the cytoplasmic tail of CDHR5) (domain or fragment, human, UniProt Q9HBB8-1 697-845, looked up)
chain: RLKCCCGKAPEPQPQGFDNQAFLPDHKANWAPVPSPTHDPKPAEAPMPAEPAPPGPASPGGAPEPPAAARAGGSPTAVRSILTKERRPEGGYKAVWFGEDIGTEADVVVLNAPTLDVDGASDSGSGDEGEGAGRGGGPYDAPGGDDSYI
B1: binds.
